# B1: Human sFlt-1 (Abcam, Cat#54346), without Fc fusion (receptor, UniProt P17948-2 27-687, looked up)
# chain: SKLKDPELSLKGTQHIMQAGQTLHLQCRGEAAHKWSLPEMVSKESERLSITKSACGRNGKQFCSTLTLNTAQANHTGFYSCKYLAVPTSKKKETESAIYIFISDTGRPFVEMYSEIPEIIHMTEGRELVIPCRVTSPNITVTLKKFPLDTLIPDGKRIIWDSRKGFIISNATYKEIGLLTCEATVNGHLYKTNYLTHRQTNTIIDVQISTPRPVKLLRGHTLVLNCTATTPLNTRVQMTWSYPDEKNKRASVRRRIDQSNSHANIFYSVLTIDKMQNKDKGLYTCRVRSGPSFKSVNTSVHIYDKAFITVKHRKQQVLETVAGKRSYRLSMKVKAFPSPEVVWLKDGLPATEKSARYLTRGYSLIIKDVTEEDAGNYTILLSIKQSNVFKNLTATLIVNVKPQIYEKAVSSFPDPALYPLGSRQILTCTAYGIPQPTIKWFWHPCNHNHSEARCDFCSNNEESFILDADSNMGNRIESITQRMAIIEGKNKMASTLVVADSRISGIYICIASNKVGTVGRNISFYITDVPNGFHVNLEKMPTEGEDLKLSCTVNKFLYRDVTWILLRTVNNRTMHYSISKQKMAITKEHSITLNLTIMNVSLQDSGTYACRARNVYTGEEILQKKEITIRGEHCNKKAVFSRISKFKSTRNDCTTQSNVKH
# notes: also called hsFlt-1; commercial sFlt-1 that doesn't contain Fc fusion
# Target: the molecule itself
# Test: DSS crosslinking, anti-Flt-1 Western blot
# Description: PLGF and sFlt-1 (Human sFlt-1:Abcam, Cat#54346) were incubated on ice for 2 hrs in 100 μL crosslinking buffer. After the incubation, the crosslinking reagent, Disuccinimidyl suberate (DSS), was added, 1 μL of 25 mM stock DSS (in DMSO) to a final concentration of 250 μM. After brief vortexing, the mixture was incubated on ice for additional 15 min.
# To analyze the crosslinked complexes using Western blot, the pellets were solubilized with 30 μL of 1×LDS buffer containing 10 mM DTT. After heating the dissolved pellets to 37° C. for 15 min, 10 μL of the sample was loaded onto 8 to 16% Tris-glycince SDS-PAGE gel. The gels were transferred to PVDF membranes by standard method for anti-PLGF or anti-Flt-1 Western blot analysis.
# WT PLGF forms dimers in its native state, and the binding models of WT PLGF with hsFlt-1 were established. A PLGF C59A monomer binding with Flt-1 receptor monomer is also found. The binding complexes, WT PLGF-hsFlt-1 and PLGF C59A-hsFlt-1, were crosslinked by DSS through amine groups on the surface of PLGF or hsFlt-1 molecules. After separating on SDS-PAGE, PLGF-containing or Flt-1 containing binding complexes were detected on Western blot by anti-PLGF or anti-Flt-1 antibodies.
protein,measurement,value
B1,binding result,no binding

# — patent US20150368309A1 (SHIRE HUMAN GENETIC THERAPIES, published 2015)
